Assay results from IntAct's records for PubMed 29039417.

B1: Isoform 2 of Bardet-Biedl syndrome 7 protein (Homo sapiens), Q8IWZ6-2 (parent)
chain: MDLILNRMDYLQVGVTSQKTMKLIPASRHRATQKVVIGDHDGVVMCFGMKKGEAAAVFKTLPGPKIARLELGGVINTPQEKIFIAAASEIRGFTKRGKQFLSFETNLTESIKAMHISGSDLFLSASYIYNHYCDCKDQHYYLSGDKINDVICLPVERLSRITPVLACQDRVLRVLQGSDVMYAVEVPGPPTVLALHNGNGGDSGEDLLFGTSDGKLALIQITTSKPVRKWEIQNEKKRGGILCIDSFDIVGDGVKDLLVGRDDGMVEVYSFDNANEPVLRFDQMLSESVTSIQGGCVGKDSYDEIVVSTYSGWVTGLTTEPIHKESGPGEELKINQEMQNKISSLRNELEHLQYKVLQERENYQQSSQSSKAKSAVPSFGINDKFTLNKDDASYSLILEVQTAIDNVLIQSDVPIDLLDVDKNSAVVSFSSCDSESNDNFLLATYRCQADTTRLELKIRSIEGQYGTLQAYVTPRIQPKTCQVRQYHIKPLSLHQRTHFIDHDRPMNTLTLTGQFSFAEVHSWVVFCLPEVPEKPPAGECVTFYFQNTFLDTQLESTYRKGEGVFKSDNISTISILKDVLSKEATKRKINLNISYEINEVSVKHTLKLIHPKLEYQLLLAKKVQLIDALKELQIHEGNTNFLIPEYHCILEEADHLQEEYKKQPAHLERLYG
partner: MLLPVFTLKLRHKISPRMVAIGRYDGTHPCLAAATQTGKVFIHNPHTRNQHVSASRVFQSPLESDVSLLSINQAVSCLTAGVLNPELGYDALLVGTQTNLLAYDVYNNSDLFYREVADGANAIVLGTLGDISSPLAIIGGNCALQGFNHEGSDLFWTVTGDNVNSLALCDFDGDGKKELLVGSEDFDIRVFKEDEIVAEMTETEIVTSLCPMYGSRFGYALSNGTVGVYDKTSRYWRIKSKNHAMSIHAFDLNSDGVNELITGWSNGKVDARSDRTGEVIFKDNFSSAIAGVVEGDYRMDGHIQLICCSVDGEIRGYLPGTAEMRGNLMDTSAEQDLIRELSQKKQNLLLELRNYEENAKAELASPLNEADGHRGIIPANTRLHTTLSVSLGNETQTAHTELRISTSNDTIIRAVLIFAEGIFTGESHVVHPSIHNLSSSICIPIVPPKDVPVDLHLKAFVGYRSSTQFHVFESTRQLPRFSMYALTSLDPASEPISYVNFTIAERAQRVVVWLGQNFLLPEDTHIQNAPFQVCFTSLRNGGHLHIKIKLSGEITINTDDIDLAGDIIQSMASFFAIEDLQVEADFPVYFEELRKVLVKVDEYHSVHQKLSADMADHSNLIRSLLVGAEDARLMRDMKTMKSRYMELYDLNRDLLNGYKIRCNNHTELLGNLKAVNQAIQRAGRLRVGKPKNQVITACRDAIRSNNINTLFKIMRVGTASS

Variants of: B1
Details: with bbs2_human BBS2, Q9BXC9

| Variant | effect of a mutation on the interaction |
| --- | --- |
| F385K | with no effect |
| T402A | with no effect |
| T402E | with no effect |
| T402K | with no effect |
| L396A | with no effect |
| L396K | with no effect |
| L396E | with no effect |
| L396P | disrupting interaction strength |
| D383A | with no effect |
| D383K | with no effect |
| D383E | with no effect |
| I381A | with no effect |
| I381K | with no effect |
| I381E | with no effect |
| Q358K | with no effect |
| Q358A | with no effect |
| Q358E | with no effect |
| N382K | with no effect |
| N382E | with no effect |
| N382A | with no effect |
| S344A | with no effect |
| S344E | with no effect |
| S344K | with no effect |
| L345K | with no effect |

| Variant | effect of a mutation on the interaction |
| --- | --- |
| L345A | with no effect |
| L345E | with no effect |
| T386A | with no effect |
| T386K | with no effect |
| T386E | with no effect |
| H351A | with no effect |
| H351E | with no effect |
| H351K | with no effect |
| D391K | with no effect |
| D391A | with no effect |
| D391E | with no effect |
| N362A | with no effect |
| N362E | with no effect |
| N362K | with no effect |
| S393K | with no effect |
| S393A | with no effect |
| S393E | with no effect |
| K355E | with no effect |
| K355A | with no effect |
| Y363A | with no effect |
| Y363E | with no effect |
| Y363K | with no effect |
| K373A | with no effect |
| K373E | with no effect |

| Variant | effect of a mutation on the interaction |
| --- | --- |
| A403E | with no effect |
| A403K | with no effect |
| V407E | with no effect |
| V407A | with no effect |
| L357K | with no effect |
| L357E | with no effect |
| L357A | with no effect |
| K389E | with no effect |
| K389A | with no effect |
| I397E | with no effect |
| I397K | with no effect |
| I397A | with no effect |
| Q365E | with no effect |
| Q365K | with no effect |
| Q365A | with no effect |
| N388K | with no effect |
| N388E | with no effect |
| N388A | with no effect |
| E361K | with no effect |
| E361A | with no effect |
| A375E | with no effect |
| A375K | with no effect |
| E350A | with no effect |
| E350K | with no effect |

| Variant | effect of a mutation on the interaction |
| --- | --- |
| L387K | with no effect |
| L387A | with no effect |
| L387E | with no effect |
| P377E | with no effect |
| P377A | with no effect |
| P377K | with no effect |
| V356A | disrupting interaction strength |
| V356K | with no effect |
| V356E | with no effect |
| I404E | with no effect |
| I404K | with no effect |
| I404A | with no effect |
| I342K | with no effect |
| I342E | with no effect |
| I342A | with no effect |
| N406A | with no effect |
| N406E | with no effect |
| N406K | with no effect |
| D405E | with no effect |
| D405A | with no effect |
| D405K | with no effect |
